Source: article PMC4906247, “Death-Associated Protein Kinase Activity Is Regulated by Coupled Calcium/Calmodulin Binding to Two Distinct Sites” (Structure(London, England:1993), 2016)

Target: the molecule itself
Assay: crystal structure; hDAPK1 CD + ARD (2.0 Å), hDAPK2 CD + ARD (1.47 Å) and hDAPK3 CD (3.1 Å) crystallised by vapor diffusion; homodimers in the crystals

Row | Protein | binding result
1 | human death-associated protein kinase 1, catalytic domain and most of the autoregulatory domain (hDAPK1 CD + ARD, residues 1-312) (domain or fragment, UniProt P53355 1-312, looked up, death-associated protein kinase 1, human, CD and most of the ARD, residues 1-312; Dimer in the crystal; also called hDAPK1 CD + ARD construct (1-312); source: E. coli BL21(DE3), purified (Ni-NTA, TEV cleavage, SEC); not shown: His6, N-terminal, cleaved) MTVFRQENVDDYYDTGEELGSGQFAVVKKCREKSTGLQYAAKFIKKRRTKSSRRGVSREDIEREVSILKEIQHPNVITLHEVYENKTDVILILELVAGGELFDFLAEKESLTEEEATEFLKQILNGVYYLHSLQIAHFDLKPENIMLLDRNVPKPRIKIIDFGLAHKIDFGNEFKNIFGTPEFVAPEIVNYEPLGLEADMWSIGVITYILLSGASPFLGDTKQETLANVSAVNYEFEDEYFSNTSALAKDFIRRLLVKDPKKRMTIQDSLQHPWIKPKDTQQALSRKASAVNMEKFKKFAARKKWKQSVRLI | binds
2 | human death-associated protein kinase 3, catalytic domain (hDAPK3 CD, residues 1-274) (domain or fragment, UniProt O43293 1-274, looked up, death-associated protein kinase 3, human, CD, residues 1-274; Dimer in the crystal; also called hDAPK3 CD construct; source: E. coli Rosetta (DE3) pLysS, purified (glutathione Sepharose, TEV cleavage, SEC); not shown: GST, N-terminal, cleaved) MSTFRQEDVEDHYEMGEELGSGQFAIVRKCRQKGTGKEYAAKFIKKRRLSSSRRGVSREEIEREVNILREIRHPNIITLHDIFENKTDVVLILELVSGGELFDFLAEKESLTEDEATQFLKQILDGVHYLHSKRIAHFDLKPENIMLLDKNVPNPRIKLIDFGIAHKIEAGNEFKNIFGTPEFVAPEIVNYEPLGLEADMWSIGVITYILLSGASPFLGETKQETLTNISAVNYDFDEEYFSNTSELAKDFIRRLLVKDPKRRMTIAQSLEHSW | binds
